Article PMC9482650, “Quantitative fragmentomics allow affinity mapping of interactomes” (Nature Communications, 2022)
Substitutions are numbered along the chain they refer to.

What was measured:
Test in all cases: holdup assay
Set-up in all cases: key: below the threshold = too weak to quantify, mostly under pKd 3.1 to 4
[1] = biological target: Inadl_4, Q8NI35
[2] = biological target: T1, ARHGEF11, O15085
T1 sequence (O15085 42-136, limits assumed, looked up): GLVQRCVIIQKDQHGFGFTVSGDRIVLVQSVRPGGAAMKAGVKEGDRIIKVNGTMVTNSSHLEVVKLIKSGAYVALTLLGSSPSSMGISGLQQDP

[3] = biological target: T2, APBA2_2, Q99767
T2 sequence (Q99767 654-744, limits assumed, looked up): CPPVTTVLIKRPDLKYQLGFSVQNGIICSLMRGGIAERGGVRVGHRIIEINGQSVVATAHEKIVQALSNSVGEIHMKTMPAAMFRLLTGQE

[4] = biological target: DLG4_1, P78352
Sequence of DLG4_1, P78352 (P78352 62-152): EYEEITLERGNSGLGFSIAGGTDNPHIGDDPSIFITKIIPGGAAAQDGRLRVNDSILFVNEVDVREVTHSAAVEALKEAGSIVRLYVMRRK

[5] = biological target: Inadl_8, Q8NI35
Sequence of Inadl_8, Q8NI35 (Q8NI35 1425-1530): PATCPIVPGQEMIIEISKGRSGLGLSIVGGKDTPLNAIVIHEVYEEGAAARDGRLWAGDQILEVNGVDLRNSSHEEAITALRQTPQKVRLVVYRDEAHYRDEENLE

[6] = biological target: T3, NHERF3_3, Q5T2W1
T3 sequence (Q5T2W1 238-333, limits assumed, looked up): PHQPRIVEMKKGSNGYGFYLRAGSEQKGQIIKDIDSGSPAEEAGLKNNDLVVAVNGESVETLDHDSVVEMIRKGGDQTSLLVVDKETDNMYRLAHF

[7] = biological target: T4, APBA1_2, Q02410
T4 sequence (Q02410 742-832, limits assumed, looked up): T2 sequence (Q99767 654-744, limits assumed, looked up) with K10R, K15R, A59P, Q65H, A66I, S70A, F84Y, G89A

[8] = biological target: PICK1, Q9NRD5
Sequence of PICK1, Q9NRD5 (Q9NRD5 17-115): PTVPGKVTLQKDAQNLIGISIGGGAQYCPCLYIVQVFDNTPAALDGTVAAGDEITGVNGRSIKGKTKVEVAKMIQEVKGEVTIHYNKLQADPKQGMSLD

[9] = biological target: T5, LIN7A, O14910
T5 sequence (O14910 103-200, limits assumed, looked up): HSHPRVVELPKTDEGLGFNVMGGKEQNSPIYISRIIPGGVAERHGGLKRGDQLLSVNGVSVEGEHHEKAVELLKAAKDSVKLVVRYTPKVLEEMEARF

[10] = biological target: MAGI1_1, Q96QZ7
Sequence of MAGI1_1, Q96QZ7 (Q96QZ7 1-106): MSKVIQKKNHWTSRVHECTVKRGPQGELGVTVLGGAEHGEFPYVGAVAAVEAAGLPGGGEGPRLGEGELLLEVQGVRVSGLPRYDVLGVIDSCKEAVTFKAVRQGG

[11] = biological target: PDZRN4_1, Q6ZMN7
Sequence of PDZRN4_1, Q6ZMN7 (Q6ZMN7 213-318): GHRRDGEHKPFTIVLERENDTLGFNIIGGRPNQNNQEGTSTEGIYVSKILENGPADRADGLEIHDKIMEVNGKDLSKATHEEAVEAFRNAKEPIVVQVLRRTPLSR

[12] = biological target: NOS1, P29475
Sequence of NOS1, P29475 (P29475 9-101): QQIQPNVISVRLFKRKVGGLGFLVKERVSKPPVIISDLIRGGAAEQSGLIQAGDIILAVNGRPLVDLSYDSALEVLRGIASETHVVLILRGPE

[13] = biological target: T6, SYNJ2BP, P57105
T6 sequence (P57105 8-110, limits assumed, looked up): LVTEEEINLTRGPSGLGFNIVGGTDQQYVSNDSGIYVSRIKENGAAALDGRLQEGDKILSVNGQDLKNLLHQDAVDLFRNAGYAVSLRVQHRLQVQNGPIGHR

[14] = biological target: T7, MPP7, Q5T2T1
T7 sequence (Q5T2T1 134-230, limits assumed, looked up): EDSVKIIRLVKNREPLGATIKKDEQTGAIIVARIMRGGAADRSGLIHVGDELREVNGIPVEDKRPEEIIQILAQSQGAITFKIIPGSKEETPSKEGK

[15] = biological target: SNX27, Q96L92
[16] = biological target: Inadl_2, Q8NI35
Sequence of Inadl_2, Q8NI35 (Q8NI35 238-335): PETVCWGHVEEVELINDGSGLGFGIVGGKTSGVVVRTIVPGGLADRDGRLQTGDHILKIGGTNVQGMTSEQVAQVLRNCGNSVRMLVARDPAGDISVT

[17] = biological target: T8, PTPN13_1, Q12923
T8 sequence (Q12923 1088-1188, limits assumed, looked up): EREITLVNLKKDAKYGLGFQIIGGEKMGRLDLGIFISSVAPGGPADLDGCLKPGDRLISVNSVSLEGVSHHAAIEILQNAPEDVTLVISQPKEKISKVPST

[18] = biological target: T9, LNX2_2, Q8N448
T9 sequence (Q8N448 334-432, limits assumed, looked up): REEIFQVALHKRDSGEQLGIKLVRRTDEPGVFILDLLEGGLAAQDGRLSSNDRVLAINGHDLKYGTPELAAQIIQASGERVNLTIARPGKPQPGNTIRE

[19] = biological target: T10, GRIP1_2, Q9Y3R0
T10 sequence (Q9Y3R0 145-248, limits assumed, looked up): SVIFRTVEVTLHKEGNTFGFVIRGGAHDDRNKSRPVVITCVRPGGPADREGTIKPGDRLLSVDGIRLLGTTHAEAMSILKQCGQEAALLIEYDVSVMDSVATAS

[20] = biological target: GRIP2_4, Q9C0E4
Sequence of GRIP2_4, Q9C0E4 (Q9C0E4 446-548): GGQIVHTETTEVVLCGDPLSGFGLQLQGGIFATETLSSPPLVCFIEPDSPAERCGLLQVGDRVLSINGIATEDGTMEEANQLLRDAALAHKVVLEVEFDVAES

[21] = biological target: IL16_4, Q14005
Sequence of IL16_4, Q14005 (Q14005 1229-1329): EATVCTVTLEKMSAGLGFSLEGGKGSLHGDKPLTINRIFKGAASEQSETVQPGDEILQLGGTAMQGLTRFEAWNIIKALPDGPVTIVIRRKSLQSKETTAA

[22] = biological target: DLG4_2, P78352
Sequence of DLG4_2, P78352 (P78352 155-259): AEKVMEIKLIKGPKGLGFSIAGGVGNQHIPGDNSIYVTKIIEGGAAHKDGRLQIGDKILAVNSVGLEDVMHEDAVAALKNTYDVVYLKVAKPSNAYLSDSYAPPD

[23] = biological target: GIPC2, Q8TF65
Sequence of GIPC2, Q8TF65 (Q8TF65 112-203): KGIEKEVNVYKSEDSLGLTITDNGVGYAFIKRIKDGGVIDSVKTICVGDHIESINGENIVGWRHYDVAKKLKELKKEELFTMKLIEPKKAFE

[24] = biological target: PARD3_3, Q8TEW0
Sequence of PARD3_3, Q8TEW0 (Q8TEW0 582-685): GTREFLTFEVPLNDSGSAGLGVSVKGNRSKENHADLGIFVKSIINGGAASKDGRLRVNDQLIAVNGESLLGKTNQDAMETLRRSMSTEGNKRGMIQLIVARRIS

[25] = biological target: T11, SNTG1, Q9NSN8
T11 sequence (Q9NSN8 52-150, limits assumed, looked up): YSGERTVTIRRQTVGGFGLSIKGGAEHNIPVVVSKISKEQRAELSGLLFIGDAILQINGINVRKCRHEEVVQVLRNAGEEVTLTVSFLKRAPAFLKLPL

[26] = biological target: T12, SNTA1, Q13424
T12 sequence (Q13424 82-180, limits assumed, looked up): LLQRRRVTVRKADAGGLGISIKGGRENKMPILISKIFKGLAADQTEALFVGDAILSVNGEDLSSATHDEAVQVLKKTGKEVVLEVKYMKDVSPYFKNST

[27] = plain residues with an end cap or a label only (N-terminal biotin on a linker: ahx)
[28] = plain residues with an end cap or a label only (N-terminal biotin on a linker: ttds)

Sequence of Inadl_4, Q8NI35 (Q8NI35 547-651): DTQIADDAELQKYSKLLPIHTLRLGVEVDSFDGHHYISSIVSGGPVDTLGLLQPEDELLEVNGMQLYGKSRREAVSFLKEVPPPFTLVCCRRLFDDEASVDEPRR

B1: NRXN1, Q9ULB1 (peptide)
chain: KKNKDKEYYV
B1 was tested, and the pKd [1, 27] was “below the threshold”, the pKd [2, 27] was “below the threshold” and the pKd [3, 27] was “below the threshold”. The pKd [4, 27] was “below the threshold”, the pKd [5, 27] was “below the threshold” and the pKd [6, 27] was “below the threshold”. For the same binder, the pKd [7, 27] was 3.62, the pKd [8, 27] was “below the threshold” and the pKd [9, 27] was “below the threshold”. The pKd [10, 27] was “below the threshold”, the pKd [11, 27] was “below the threshold” and the pKd [12, 27] was 3.57. For the same binder, the pKd [13, 27] was “below the threshold”, the pKd [14, 27] was 4.29 and the pKd [15, 27] was “below the threshold”. The pKd [16, 27] was 4.55, the pKd [17, 27] was “below the threshold” and the pKd [18, 27] was 4.16. The pKd [19, 27] was “below the threshold”, the pKd [20, 27] was “below the threshold” and the pKd [21, 27] was “below the threshold”. The pKd [22, 27] was “below the threshold”, the pKd [23, 27] was “below the threshold” and the pKd [24, 27] was 4.29. The pKd [25, 27] was “below the threshold” and the pKd [26, 27] was “below the threshold”.

B2: PDLIM7, Q9NR12;Q9NR12-1 (peptide)
chain: LCKSHAFSHV
In the case of B2, the pKd [1, 27] is reported as “below the threshold”, the pKd [3, 27] is reported as “below the threshold” and the pKd [4, 27] is reported as “below the threshold”. The pKd [5, 27] was 4.1, the pKd [6, 27] was “below the threshold” and the pKd [8, 27] was “below the threshold”. For the same binder, the pKd [9, 27] was “below the threshold”, the pKd [10, 27] was “below the threshold” and the pKd [11, 27] was “below the threshold”. For the same binder, the pKd [14, 27] was “below the threshold”, the pKd [15, 27] was “below the threshold” and the pKd [16, 27] was “below the threshold”. For the same binder, the pKd [17, 27] was “below the threshold”, the pKd [18, 27] was “below the threshold” and the pKd [19, 27] was “below the threshold”. The pKd [20, 27] was “below the threshold”, the pKd [21, 27] was “below the threshold” and the pKd [22, 27] was 3.49. The pKd [24, 27] was “below the threshold”, the pKd [25, 27] was “below the threshold” and the pKd [26, 27] was “below the threshold”.

B3: KCNA5, P22460 (peptide)
chain: CLDTSRETDL
For B3, the pKd [1, 28] was “below the threshold”, the pKd [2, 28] was 4 and the pKd [3, 28] was “below the threshold”. For the same binder, the pKd [4, 28] was 3.84, the pKd [5, 28] was “below the threshold” and the pKd [6, 28] was “below the threshold”. For the same binder, the pKd [7, 28] was “below the threshold”, the pKd [8, 28] was “below the threshold” and the pKd [9, 28] was “below the threshold”. The pKd [10, 28] was “below the threshold”, the pKd [11, 28] was 3.98 and the pKd [12, 28] was “below the threshold”. For the same binder, the pKd [13, 28] was 4.2, the pKd [14, 28] was “below the threshold” and the pKd [15, 28] was 4.44. For the same binder, the pKd [16, 28] was “below the threshold”, the pKd [17, 28] was “below the threshold” and the pKd [18, 28] was “below the threshold”. The pKd [19, 28] was 3.65, the pKd [20, 28] was “below the threshold” and the pKd [21, 28] was “below the threshold”. The pKd [22, 28] was 4.43, the pKd [23, 28] was “below the threshold” and the pKd [24, 28] was 3.48. It also gave a pKd [25, 28] of 4.6 and a pKd [26, 28] of 5.34.

B4: SHROOM3, Q8TF72 (peptide)
chain: GIFPTLTSPL
In the case of B4, the pKd [1, 27] is reported as “below the threshold”, the pKd [2, 27] is reported as 3.49 and the pKd [3, 27] is reported as “below the threshold”. The pKd [4, 27] was “below the threshold”, the pKd [5, 27] was “below the threshold” and the pKd [6, 27] was “below the threshold”. For the same binder, the pKd [7, 27] was “below the threshold”, the pKd [8, 27] was “below the threshold” and the pKd [9, 27] was “below the threshold”. For the same binder, the pKd [10, 27] was “below the threshold”, the pKd [11, 27] was “below the threshold” and the pKd [12, 27] was “below the threshold”. The pKd [13, 27] was “below the threshold”, the pKd [14, 27] was “below the threshold” and the pKd [15, 27] was 3.91. The pKd [16, 27] was “below the threshold”, the pKd [17, 27] was “below the threshold” and the pKd [18, 27] was “below the threshold”. The pKd [20, 27] was “below the threshold”, the pKd [21, 27] was “below the threshold” and the pKd [22, 27] was “below the threshold”. For the same binder, the pKd [23, 27] was “below the threshold”, the pKd [24, 27] was “below the threshold” and the pKd [25, 27] was “below the threshold”. The pKd [26, 27] was “below the threshold”.

B5: PTEN, P60484 (peptide)
chain: DEDQHTQITKV
With B5 the pKd [1, 28] was “below the threshold”, the pKd [2, 28] was 4.33 and the pKd [3, 28] was “below the threshold”. The pKd [4, 28] was 3.82, the pKd [5, 28] was 4.46 and the pKd [6, 28] was 3.67. For the same binder, the pKd [7, 28] was 4.02, the pKd [8, 28] was 3.77 and the pKd [9, 28] was “below the threshold”. For the same binder, the pKd [10, 28] was “below the threshold”, the pKd [11, 28] was 3.62 and the pKd [12, 28] was “below the threshold”. For the same binder, the pKd [13, 28] was 3.65, the pKd [14, 28] was “below the threshold” and the pKd [15, 28] was 4.89. The pKd [16, 28] was “below the threshold”, the pKd [17, 28] was “below the threshold” and the pKd [18, 28] was 4.25. The pKd [20, 28] was “below the threshold”, the pKd [21, 28] was 3.5 and the pKd [22, 28] was 3.67. For the same binder, the pKd [24, 28] was 3.55, the pKd [25, 28] was 4.01 and the pKd [26, 28] was 4.04.

B6: RAPGEF2, Q9Y4G8 (peptide)
chain: EDEDEQVSAV
B6 was tested, and the pKd [1, 27] was “below the threshold”, the pKd [2, 27] was 4.1 and the pKd [3, 27] was “below the threshold”. For the same binder, the pKd [4, 27] was 3.59, the pKd [5, 27] was 3.86 and the pKd [6, 27] was “below the threshold”. The pKd [7, 27] was 3.65, the pKd [8, 27] was “below the threshold” and the pKd [9, 27] was “below the threshold”. The pKd [10, 27] was “below the threshold”, the pKd [11, 27] was “below the threshold” and the pKd [12, 27] was 3.67. The pKd [13, 27] was 3.49, the pKd [14, 27] was “below the threshold” and the pKd [15, 27] was 5.32. The pKd [16, 27] was “below the threshold”, the pKd [17, 27] was “below the threshold” and the pKd [18, 27] was “below the threshold”. For the same binder, the pKd [19, 27] was “below the threshold”, the pKd [20, 27] was “below the threshold” and the pKd [21, 27] was “below the threshold”. It also gave a pKd [22, 27] of 3.95, a pKd [23, 27] of 3.81 and a pKd [24, 27] of 3.91. The pKd [25, 27] was 4.29 and the pKd [26, 27] was 3.61.
